Where no end group is shown, it is not given here. The star is where a group is joined. FITC = O=C1OC2(c3ccc(O)cc3Oc3cc(O)ccc32)c2ccc(NC(=S)*)cc21
Columns and labels:
Assay type in all cases: cell-based
GPC-3 protein [1] = target: T1, GPC-3 protein (Homo sapiens, UniProt P51654); experiment: Overlay assay of FITC-labeled peptide on cell lines in which GPC-3 protein was expressed; design: the human hepatocellular carcinoma cell line HepG2 in which GPC-3 protein was expressed; endogenous in cells; host or cells: HepG2, Huh-7, SkMel28 (ATCC)
T1 sequence (P51654 25-554): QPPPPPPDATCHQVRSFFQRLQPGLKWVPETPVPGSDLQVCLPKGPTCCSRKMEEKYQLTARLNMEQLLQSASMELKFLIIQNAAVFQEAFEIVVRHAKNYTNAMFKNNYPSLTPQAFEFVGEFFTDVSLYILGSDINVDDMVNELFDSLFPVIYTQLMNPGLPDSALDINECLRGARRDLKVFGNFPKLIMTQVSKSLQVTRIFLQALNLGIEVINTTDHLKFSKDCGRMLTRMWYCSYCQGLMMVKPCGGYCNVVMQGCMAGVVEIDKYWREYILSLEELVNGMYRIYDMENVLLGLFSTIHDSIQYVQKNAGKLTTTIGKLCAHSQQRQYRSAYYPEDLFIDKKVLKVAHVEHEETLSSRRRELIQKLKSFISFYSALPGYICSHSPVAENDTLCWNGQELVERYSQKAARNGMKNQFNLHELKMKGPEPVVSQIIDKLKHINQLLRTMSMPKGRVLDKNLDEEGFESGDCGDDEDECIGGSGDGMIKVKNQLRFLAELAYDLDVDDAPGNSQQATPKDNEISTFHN
Protocol: (§1) The peptide synthesized in Example 8 was subjected to an overlay assay. First, the human hepatocellular carcinoma cells (HepG2, Huh-7) and the renal cell (HEK293) were cultured to about 1×10^5 in an 8-well chamber slide, followed by washing three times with PBS for three min. In order to prevent non-specific reactions, a reaction was performed in Opti-MEM supplemented with 1% BSA for 1 hour. Again, washing was performed three times with PBS for three min, and then cells were fixed with a fixative containing ethanol and acetone at 2:1 for 3 min. The cells were mounted in Mounting medium supplemented with DAPI. FIGS. 8 through 10 illustrate the results.

[2] = test system: renal cell lines in which GPC-3 protein was not expressed (HEK-293, Cos-7); experiment: Overlay assay of FITC-labeled peptide on cells in which GPC-3 protein was not expressed
Protocol: as §1

GPC-3 protein [3] = target: T1, GPC-3 protein; experiment: Overlay assay on HepG2 in competition with equivalent peptide to which FITC was not bound; design: the human hepatocellular carcinoma cell line HepG2 in which GPC-3 protein was expressed; endogenous in cells; host or cells: HepG2; conditions: competition with unlabeled peptide for bonding to GPC-3 protein
Protocol: as §1
FIG. 9 illustrates image results obtained from reaction of a peptide (FITC-RLNVGGTYFLTTRQ) containing the amino acid sequence of SEQ ID No.1 to the human hepatocellular carcinoma cell line HepG2 in which GPC-3 protein was expressed with an equivalent peptide to which FITC were not bound. […] Because a peptide in which a fluorescent material was not labeled and a fluorescent material labeled peptide were competing for bonding to GPC-3 protein, a fluorescent material labeled peptide became less likely to bind to GPC-3.

Row | Substance | fluorescence by FITC (overlay, FIG. 8) (GPC-3 protein [1]; cell lines in which GPC-3 protein was expressed: HepG2, SkMe128, HEK-293 with GPC-3) | fluorescence by FITC (overlay, FIG. 8) ([2]; renal cell line in which GPC-3 protein was not expressed: Cos-7) | fluorescence by FITC (overlay, FIG. 7) (GPC-3 protein [1]; cell lines in which GPC-3 protein was expressed: HepG2, Huh-7, SkMe128, HEK-293 with GPC-3) | fluorescence by FITC in presence of equivalent peptide to which FITC was not bound (FIG. 9) (GPC-3 protein [3]) | fluorescence by FITC (overlay, FIG. 7) ([2]; renal cell lines in which GPC-3 protein was not expressed: HEK-293, Cos-7)
1 | FITC-YFLTTRQ ({FITC}-YFLTTRQ) | fluorescence by FITC was observed | fluorescence was not observed | – | – | –
2 | FITC-RLNVGGTYFLTTRQ ({FITC}-RLNVGGTYFLTTRQ) | – | – | fluorescence by FITC was observed | fluorescence was not observed | fluorescence was not observed

— patent US8388937B2, “Specific peptide binding to glypican-3” (Kyungpook National University Industry—Academic Cooperation …, priority 2009, dated 2013)
